Our source for the Kd values is the Immune Epitope Database (IEDB).

For one test, the target named is HLA-A*01:01. Briefly: IEDB peptide-MHC binding, purified MHC/competitive/radioactivity; filed as Kd, often an IC50 or EC50 that approximates it; ≥ and ≤ were set here for values at or beyond the usual limits of such assays.
The target in the next test is HLA-A*26:01. Described as above.
The target in another test is HLA-A*29:02. Described as above.
Another test deals with HLA-A*30:01. The test is described as above.
The next test concerns the target HLA-A*30:02. The description is as above.
The target in another test is HLA-A*32:01. The test is described as above.
Test [1] has as its target HLA-A*03:01. The experiment in a line: IEDB peptide-MHC binding, purified MHC/direct/fluorescence; filed as Kd, often an IC50 or EC50 that approximates it; ≥ and ≤ were set here for values at or beyond the usual limits of such assays.
The target in test [2] is HLA-A*31:01. Described as above.
In another test the target is HLA-B*08:01. The experiment in a line: IEDB peptide-MHC binding, purified MHC/competitive/radioactivity; filed as Kd, often an IC50 or EC50 that approximates it; ≥ and ≤ were set here for values at or beyond the usual limits of such assays.
Another test addresses HLA-B*40:01. The test is described as above.
A further test addresses HLA-B*44:02. Described as above.
Another test has as its target HLA-B*44:03. The test is described as above.
The target in test [3] is HLA-A*31:01. The test is described as above.
The target of another test is HLA-A*33:01. The description is as above.
The next test addresses HLA-A*02:01. Described as above.
Test [4] addresses HLA-A*03:01. Described as above. Particulars: source organism: Vaccinia virus WR.
The target in the next test is HLA-A*11:01. The description is as above. Particulars: source organism: Vaccinia virus WR.
For another test, the target named is HLA-A*68:01. Described as above. Particulars: source organism: Vaccinia virus WR.
The mark [5] stands for this setting: source organism: Mammarenavirus brazilense.
[6] abbreviates: source organism: Rickettsia prowazekii.
Setting [7] is: source organism: Dengue virus 4 Philippines/H241/1956.
Setting [8] is: source organism: Vaccinia virus WR.
The mark [9] stands for this setting: source organism: Dengue virus 2 Jamaica/1409/1983.
The mark [10] stands for this setting: source organism: Dengue virus 1 Brazil/97-11/1997.
Where [11] appears, read: source organism: Vaccinia virus Copenhagen.
The mark [12] stands for this setting: source organism: Dengue virus 3 Martinique/1243/1999.
[13] abbreviates: source organism: Brucella melitensis.
[14] abbreviates: source organism: Mammarenavirus whitewaterense.

pKd: −log10 of the molar value. A value given as a limit tells only on which side of the number the result lay.

As a reminder, the pKd is the negative decadic logarithm of the Kd, by convention in mol/L. In the case of KTLHSSVQSY, the pKd was 5.31 with HLA-A*01:01 (setting [5]); no more than 4.43 in the test with HLA-A*26:01 (setting [5]); 5.21 with HLA-A*29:02 (setting [5]); 6.24 with HLA-A*30:01 (setting [5]); 7.13 with HLA-A*30:02 (setting [5]); 6.28 in the test with HLA-A*32:01 (setting [5]).
With KWLKIITPK, the pKd with HLA-A*03:01 [1] (setting [6]) is no more than 4.70; with HLA-A*31:01 [2] (setting [6]) it was 6.66.
With LKKNKAIKIL, in the test with HLA-B*08:01 (setting [7]), the pKd was 4.96.
Consider LMINNMHSI, for which, in the test with HLA-A*32:01 (setting [8]), the pKd is 4.86.
On to LRVLSIPPTA, for which the pKd with HLA-A*30:01 (setting [7]) is 5.46.
For MEEALRGLPI, the pKd in the test with HLA-B*40:01 (setting [9]) is 7.27; with HLA-B*44:02 (setting [9]), 7.53; with HLA-B*44:03 (setting [9]), 5.95.
In the case of MEVTARWLWG, the pKd with HLA-A*32:01 (source organism: Dengue virus 1 Singapore/S275/1990) is 5.43.
As for MFGGVSWMVR, the pKd in the test with HLA-A*31:01 [3] (setting [7]) is 7.76; in the test with HLA-A*32:01 (setting [7]) it was 6.02; in the test with HLA-A*33:01 (setting [7]), 8.34.
MGLDKGWPIS: the pKd with HLA-A*32:01 (setting [10]) is 5.00.
On to MLNYVDYNI, for which, in the test with HLA-A*32:01 (setting [8]), the pKd was 8.80.
MVLPGAANK: the pKd with HLA-A*30:01 (setting [8]) is 7.23.
For the sequence MVRLTTQGL, the pKd with HLA-A*30:01 (setting [11]) was 8.08.
Take NIMPLFPTF: in the test with HLA-B*08:01 (setting [8]), the pKd is 7.32.
In the case of PLGLVDLFV, the pKd with HLA-A*02:01 (source organism: Lassa virus Josiah) is 5.38.
With QLAYVVIGIL, the pKd in the test with HLA-B*08:01 (setting [12]) is no more than 5.00.
As to QLLLMRTSW, the pKd with HLA-A*32:01 (setting [12]) was 7.98.
Regarding RILFRKPSL, in the test with HLA-B*08:01 (setting [8]), the pKd is 7.49.
Take RIRQQLPLY: the pKd is 7.67 with HLA-A*03:01 [4]; 6.26 with HLA-A*11:01; 7.89 with HLA-A*30:01 (setting [8]); 6.11 with HLA-A*31:01 [3] (setting [8]); no more than 4.11 with HLA-A*33:01 (setting [8]); 5.92 in the test with HLA-A*68:01.
For RPTIEKDVDL, the pKd with HLA-B*08:01 (setting [12]) was 6.07.
On to RVRIPDVAR, for which the pKd was 6.53 with HLA-A*03:01 [1] (setting [13]) and 7.63 in the test with HLA-A*31:01 [2] (setting [13]).
Take RVRISLIYL: the pKd with HLA-A*30:01 (setting [8]) was 10.04.
SEFNTYKRSG: the pKd with HLA-B*40:01 (setting [10]) is 5.06; with HLA-B*44:02 (setting [10]) it was 5.66; in the test with HLA-B*44:03 (setting [10]), 5.15.
Consider SIKMKLVSI, for which the pKd with HLA-B*08:01 (setting [11]) is 7.79.
In the case of SLNLRIKIL, the pKd with HLA-B*08:01 (setting [8]) is 7.04.
Consider SLREISNIV, for which the pKd with HLA-B*08:01 (setting [8]) is 7.99.
Turning to SLRYSSKVF, the pKd in the test with HLA-B*08:01 (setting [8]) is 6.03.
Still for that read-out and setting: in the case of SNKRHRPIG it was 7.47; in that of SNSNRLMSI, 8.00.
As to STFNRFTIV, in the test with HLA-B*08:01 (setting [8]), the pKd is 5.76.
Same read-out and setting: in the case of SVYKHRLIV it was 6.97.
In the case of TAIAGAWENG, the pKd in the test with HLA-A*32:01 (setting [12]) is no more than 4.22.
TFKKSGAIK: the pKd with HLA-A*30:01 (setting [12]) is 5.92.
Turning to TMFKIVYSL, in the test with HLA-A*32:01 (setting [8]), the pKd was 9.04.
With TTKNGQPRK, the pKd with HLA-A*30:01 (setting [8]) was 9.63.
In the case of VLENFTILLV, the pKd with HLA-A*02:01 (source organism: Homo sapiens) is 6.28.
Regarding VVKATYLLK, the pKd in the test with HLA-A*30:01 (setting [8]) was 9.49.
YVNHTGFNV: the pKd with HLA-A*01:01 (setting [14]) is 5.23; with HLA-A*26:01 (setting [14]), no more than 4.27; with HLA-A*29:02 (setting [14]), 5.61; in the test with HLA-A*30:01 (setting [14]), 5.91; in the test with HLA-A*30:02 (setting [14]) it was no more than 4.11; in the test with HLA-A*32:01 (setting [14]), no more than 4.11.
